Measured values published in US20230265217A1 (TWIST BIOSCIENCE, published 2023).
Where two headings read alike, the source gives them in different places.

Assays:
[1] = target: T1, Antibody 178-09_His B.1.1.7 (27080) (SARS-CoV-2, UniProt P0DTC2 14-685); assay: Carterra SPR
T1 construct: domain: S1; also called TB178-9

[2] = target: T2, S1 RBD L452R E484Q (Acro) (SARS-CoV-2, UniProt P0DTC2 319-537); assay: Carterra SPR
T2 construct: domain: S1 RBD; also called SARS-COV-2 RBD India Var; L452R E484Q S1; India variant mutation L452R E484Q

[3] = target: T3, Antibody 178-10_His CA_W152C_L452R_D614G (27081) (SARS-CoV-2, UniProt P0DTC2 14-685); assay: Carterra SPR
T3 construct: domain: S1; also called CA variant S1; California variant S1

[4] = target: T4, Antibody 178-08_His 501.V2 (27079) (SARS-CoV-2, UniProt P0DTC2 14-685); assay: Carterra SPR
T4 construct: domain: S1; also called TB178-8

[5] = target: T1, Antibody 178-09_His B.1.1.7 (27080); assay: Carterra SPR; remark: listed apart in the source
[6] = target: T2, S1 RBD L452R E484Q (Acro); assay: Carterra SPR; remark: listed apart in the source
[7] = target: T3, Antibody 178-10_His …; assay: Carterra SPR; remark: listed apart in the source
[8] = target: T5, SARS-CoV-2 S protein trimer (Kappa B.1.617.1 India variant) [SPN-C52Hr] (SARS-CoV-2, UniProt P0DTC2 16-1213); assay: binding kinetics, Carterra SPR
T5 construct: also called B.1.617.1 Kappa India variant

[9] = target: T6, SARS-CoV-2 S protein trimer (Delta B.1.617.2 India variant) [SPN-C52He] (SARS-CoV-2, UniProt P0DTC2 16-1213); assay: binding kinetics, Carterra SPR
T6 construct: also called B.1.617.2 Delta India variant [SPN-C52he]

[10] = target: T7, SARS-CoV-2 S protein trimer (Alpha B.1.1.7 UK variant) [SPN-C52H6] (SARS-CoV-2, UniProt P0DTC2 16-1213); assay: binding kinetics, Carterra SPR
T7 construct: also called B.1.1.7 Alpha UK variant

[11] = target: SARS-CoV-2 S protein trimer [SPN-C52H9] (SARS-CoV-2, UniProt P0DTC2 16-1213); assay: binding kinetics, Carterra SPR
[12] = target: T8, SARS-CoV-2 S protein trimer (Beta B.1.351 SA variant) [SPN-C52Hk] (SARS-CoV-2, UniProt P0DTC2 16-1213); assay: binding kinetics, Carterra SPR
T8 construct: also called B.1.351 Beta SA variant

[13] = target: T5, SARS-CoV-2 S protein trimer (Kappa …); assay: Carterra SPR
[14] = target: T6, SARS-CoV-2 S protein trimer (Delta …); assay: Carterra SPR
[15] = target: T7, SARS-CoV-2 S protein trimer (Alpha …); assay: Carterra SPR
[16] = target: SARS-CoV-2 S protein trimer (P.1 Gamma Brazil variant) [SPN-C52Hg] (SARS-CoV-2, UniProt P0DTC2 16-1213); assay: Carterra SPR
[17] = target: T8, SARS-CoV-2 S protein trimer (Beta …); assay: Carterra SPR
[18] = target: T9, SARS-CoV-2 S1 [S1N-C52H4] (SARS-CoV-2, UniProt P0DTC2 16-685); assay: Carterra SPR
T9 construct: domain: S1

[19] = target: SARS-CoV-2 S protein trimer [SPN-C52H7] (SARS-CoV-2, UniProt P0DTC2 16-1213); assay: Carterra SPR
[20] = target: T4, Antibody 178-08_His 501.V2 (27079); assay: Carterra SPR; remark: listed apart in the source

B1: 7-09 (VHH)
VHH: EVQLVESGGGLVQPGGSLRLSCAASGGTFSSIGMGWFRQAPGKEREFVAAISWDGGATAYADSVKGRFTISADNSKNTAYLQMNSLKPEDTAVYYCAKEDVGKPFDWGQGTLVTVSS
notes: also called 7-9
B1 gave a Kd [1] of 23.2 nM, a Kd [2] of 177000 nM and a Kd [3] of 38.7 nM. The binding result [4] was “no binding”, the Kd [5] was 23.2 nM and the Kd [6] was 177000 nM. The Kd [7] was 38.7 nM.

B2: 7-14 (VHH)
VHH: EVQLVESGGGLVQPGGSLRLSCAASGSTFSINAMGWFRQAPGKEREFVAGISRGGTTNYADSVKGRFTISADNSKNTAYLQMNSLKPEDTAVYYCAADGVPEYSDYASGPVWGQGTLVTVSS
In the case of B2, the Kd [8] is reported as no more than 0.0083 nM, the koff [8] is reported as no more than 1e-05 s⁻¹ and the kon [8] is reported as 1.2e+06 M⁻¹ s⁻¹. It also gave a Kd [9] of no more than 0.00994 nM, a koff [9] of no more than 1e-05 s⁻¹ and a kon [9] of 1.01e+06 M⁻¹ s⁻¹. For the same binder, the Kd [10] was no more than 0.00862 nM, the koff [10] was no more than 1e-05 s⁻¹ and the kon [10] was 1.16e+06 M⁻¹ s⁻¹. The Kd [11] was no more than 0.0105 nM, the koff [11] was no more than 1e-05 s⁻¹ and the kon [11] was 954000 M⁻¹ s⁻¹. It also gave a Kd [12] of 0.00853 nM, a koff [12] of 1.05e-05 s⁻¹ and a kon [12] of 1.23e+06 M⁻¹ s⁻¹. It also gave a Kd [1] of 19.2 nM, a Kd [2] of 20.1 nM and a Kd [3] of 43.1 nM. For the same binder, the Kd [4] was 16.9 nM, the Kd [13] was 0.012 nM and the koff [13] was 1e-05 s⁻¹. It also gave a kon [13] of 835000 M⁻¹ s⁻¹, a Kd [14] of 0.0122 nM and a koff [14] of 1e-05 s⁻¹. It also gave a kon [14] of 818000 M⁻¹ s⁻¹, a Kd [15] of 0.0128 nM and a koff [15] of 1e-05 s⁻¹. The kon [15] was 782000 M⁻¹ s⁻¹, the Kd [16] was 0.0185 nM and the koff [16] was 1.62e-05 s⁻¹. It also gave a kon [16] of 877000 M⁻¹ s⁻¹, a Kd [17] of 0.0171 nM and a koff [17] of 1.6e-05 s⁻¹. It also gave a kon [17] of 931000 M⁻¹ s⁻¹, a Kd [18] of 12.4 nM and a koff [18] of 0.000464 s⁻¹. For the same binder, the kon [18] was 37400 M⁻¹ s⁻¹, the Kd [19] was no more than 0.0142 nM and the koff [19] was no more than 1e-05 s⁻¹. It also gave a kon [19] of 703000 M⁻¹ s⁻¹, a Kd [5] of 19.2 nM and a Kd [6] of 20.1 nM. It also gave a Kd [7] of 43.1 nM and a Kd [20] of 16.9 nM.

B3: 7-37 (VHH)
VHH: EVQLVESGGGLVQPGGSLRLSCAASGSTLSINAMGWFRQAPGKEREFVAGITRSGSVTNYADSVKGRFTISADNSKNTAYLQMNSLKPEDTAVYYCAADGVPEYSDYASGPVWGQGTLVTVSS
In the case of B3, the Kd [8] is reported as 0.0171 nM, the koff [8] is reported as 1.67e-05 s⁻¹ and the kon [8] is reported as 977000 M⁻¹ s⁻¹. The Kd [9] was no more than 0.0102 nM, the koff [9] was no more than 1e-05 s⁻¹ and the kon [9] was 978000 M⁻¹ s⁻¹. The Kd [10] was 0.0131 nM, the koff [10] was 1.15e-05 s⁻¹ and the kon [10] was 875000 M⁻¹ s⁻¹. For the same binder, the Kd [11] was no more than 0.0118 nM, the koff [11] was no more than 1e-05 s⁻¹ and the kon [11] was 844000 M⁻¹ s⁻¹. The Kd [12] was 0.0224 nM, the koff [12] was 2.3e-05 s⁻¹ and the kon [12] was 1.03e+06 M⁻¹ s⁻¹. The Kd [1] was 17.8 nM, the Kd [2] was 58.5 nM and the Kd [3] was 45.1 nM. It also gave a Kd [4] of 123 nM, a Kd [13] of 0.0276 nM and a koff [13] of 2.38e-05 s⁻¹. It also gave a kon [13] of 862000 M⁻¹ s⁻¹, a Kd [14] of 0.0191 nM and a koff [14] of 1.62e-05 s⁻¹. For the same binder, the kon [14] was 844000 M⁻¹ s⁻¹, the Kd [15] was 0.0201 nM and the koff [15] was 1.52e-05 s⁻¹. The kon [15] was 757000 M⁻¹ s⁻¹, the Kd [16] was 0.0322 nM and the koff [16] was 2.92e-05 s⁻¹. The kon [16] was 906000 M⁻¹ s⁻¹, the Kd [17] was 0.03 nM and the koff [17] was 2.83e-05 s⁻¹. The kon [17] was 944000 M⁻¹ s⁻¹, the Kd [18] was 20.8 nM and the koff [18] was 0.000651 s⁻¹. The kon [18] was 31400 M⁻¹ s⁻¹, the Kd [19] was 0.026 nM and the koff [19] was 1.77e-05 s⁻¹. For the same binder, the kon [19] was 680000 M⁻¹ s⁻¹, the Kd [5] was 17.8 nM and the Kd [6] was 58.5 nM. It also gave a Kd [7] of 45.1 nM and a Kd [20] of 123 nM.
